Measurements published in patent US20060217290A1 (published 2006).

Columns and labels:
human insulin receptor = biological target: T1, human insulin receptor (human, UniProt P06213 28-1382); experiment: competitive binding SPA, displacement of [125I] insulin from human IR membranes
T1 construct: whole, on cells; Assayed as membrane preparation (P1) of transfected 293EBNA cells, not as intact cells; also called IR; HIR

human IGF-1 receptor = biological target: T2, human IGF-1 receptor (human, UniProt P08069 31-1367); experiment: competitive binding SPA, displacement of [125I]IGF-1 from human IGF-1R membranes
T2 construct: whole, on cells; Assayed as membrane preparation (P1) of transfected 293EBNA cells, not as intact cells; also called IGF-R; insulin growth factor receptor

B1: A0^ArgA21^GlyB29^ArgB31^ArgB32^Lys-human insulin (ligand)
chain 1: RGIVEQCCTSICSLYQLENYCG
chain 2: FVNQHLCGSHLVEALYLVCGERGFFYTPRTRK
notes: Insulin analog; Disulfides A7-B7, A20-B19, A6-A11; also called ArgA0, GlyA21, ArgB29, ArgB31, LysB32-human insulin
Relative IR Affinity (Mean) (human insulin receptor): 0.21 relative to recombinant human insulin
Relative IGF1-R Affinity (Mean) (human IGF-1 receptor): 1.1 relative to recombinant human insulin
